# Experimental data published in patent US20040253248A1.
# Molecular target: rat neurokinin-1 receptor (NK-1R) (rat) (UniProt P14600)
# Sequence (P14600 whole entry): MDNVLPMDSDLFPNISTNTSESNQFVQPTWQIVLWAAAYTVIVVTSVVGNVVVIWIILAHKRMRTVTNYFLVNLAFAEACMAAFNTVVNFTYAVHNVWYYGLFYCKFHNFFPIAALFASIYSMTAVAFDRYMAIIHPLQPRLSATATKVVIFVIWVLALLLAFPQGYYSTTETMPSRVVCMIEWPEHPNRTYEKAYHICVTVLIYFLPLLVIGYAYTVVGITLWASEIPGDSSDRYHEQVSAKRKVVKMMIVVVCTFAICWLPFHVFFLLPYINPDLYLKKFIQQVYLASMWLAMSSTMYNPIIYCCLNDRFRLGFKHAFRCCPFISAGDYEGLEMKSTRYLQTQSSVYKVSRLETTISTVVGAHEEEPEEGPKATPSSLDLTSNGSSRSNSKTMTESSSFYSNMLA
substance,measurement,value
"[Sar9, Met (02)11]-SP-SAP (from UniProt P20656 25-277)",IC50 (read off the curve),0.2 nM
